Source: publication PMC2542476

Molecular target: CFP-Cav1 (human caveolin-1 with CFP at its N terminus) (human) (UniProt Q03135)
Assay: FRET or BRET

Sequence of UniProt Q03135 (Q03135 whole entry): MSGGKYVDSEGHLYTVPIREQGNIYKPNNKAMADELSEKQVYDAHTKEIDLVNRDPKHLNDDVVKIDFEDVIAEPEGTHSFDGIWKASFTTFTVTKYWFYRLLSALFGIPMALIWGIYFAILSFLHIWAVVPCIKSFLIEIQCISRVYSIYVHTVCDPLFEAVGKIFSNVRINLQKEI

“YFP-tagged rat Na/K-ATPase α1 pump-null mutant D371N (natural protein)” gave an FRET efficiency of 15%.
